Where a chain is given by its changes, count along the chain named.
B1: MAb2_VLg5VHg2 (antibody, human IgG1, V domains shown)
VH: EVQLVESGGGLVQPGGSLRLSCAASGFVFSSYDMSWVRQAPGKGLEWVSYISSGGGITYYADSVKGRFTISRDNSKNTLYLQMNSLRAEDTAVYYCAAHYFGSSGPFAYWGQGTLVTVSS
VL: DIQMTQSPSSLSASVGDRVTITCRASENIFSYLAWYQQKPGKAPKLLIYNTRTLQSGVPSRFSGSGSGTDFTLTISSLQPEDFATYYCQHHYGTPFTFGQGTKLEIK
notes: Fused to human IgG1 and human Ckappa constant domains; tested as IgG in HEK293 supernatants diluted to 1 ug/ml; Parent of the alanine-scanning variants; also called MAb2_VLg5Hg2; humanized MAb2 grafted on IGHV3-23 / IGKV1D-39
B2: HC_S53A (antibody, V domains shown)
VH: B1 VH with S53A
VL: B1 VL
notes: variant of MAb2_VLg5VHg2
B3: LC_S31A (antibody, V domains shown)
VH: B1 VH
VL: B1 VL with S31A
notes: variant of MAb2_VLg5VHg2
B4: LC_S31A-HC_G54Y (antibody, V domains shown)
VH: B1 VH with G54Y
VL: B1 VL with S31A
notes: combination variant of MAb2_VLg5VHg2
B5: LC_T51A (antibody, V domains shown)
VH: B1 VH
VL: B1 VL with T51A
notes: variant of MAb2_VLg5VHg2
B6: LC_T51A-T94A (antibody, V domains shown)
VH: B1 VH
VL: B1 VL with T51A, T94A
notes: as for B4
B7: LC_T53I-HC_S53A (antibody, V domains shown)
VH: B1 VH with S53A
VL: B1 VL with T53I
notes: as for B4
B8: LC_T94A (antibody, V domains shown)
VH: B1 VH
VL: B1 VL with T94A
notes: variant of MAb2_VLg5VHg2

How the values were obtained:
[1] = molecular target: T1, hCEACAM5, human CEACAM5 ECD (35-685) (human, UniProt P06731 35-685); experiment: SPR screening (Biacore T200) of example 6.4
T1 construct: produced in HEK293; also called human CEACAM5 protein; human CEACAM5 extracellular domain
T1 sequence: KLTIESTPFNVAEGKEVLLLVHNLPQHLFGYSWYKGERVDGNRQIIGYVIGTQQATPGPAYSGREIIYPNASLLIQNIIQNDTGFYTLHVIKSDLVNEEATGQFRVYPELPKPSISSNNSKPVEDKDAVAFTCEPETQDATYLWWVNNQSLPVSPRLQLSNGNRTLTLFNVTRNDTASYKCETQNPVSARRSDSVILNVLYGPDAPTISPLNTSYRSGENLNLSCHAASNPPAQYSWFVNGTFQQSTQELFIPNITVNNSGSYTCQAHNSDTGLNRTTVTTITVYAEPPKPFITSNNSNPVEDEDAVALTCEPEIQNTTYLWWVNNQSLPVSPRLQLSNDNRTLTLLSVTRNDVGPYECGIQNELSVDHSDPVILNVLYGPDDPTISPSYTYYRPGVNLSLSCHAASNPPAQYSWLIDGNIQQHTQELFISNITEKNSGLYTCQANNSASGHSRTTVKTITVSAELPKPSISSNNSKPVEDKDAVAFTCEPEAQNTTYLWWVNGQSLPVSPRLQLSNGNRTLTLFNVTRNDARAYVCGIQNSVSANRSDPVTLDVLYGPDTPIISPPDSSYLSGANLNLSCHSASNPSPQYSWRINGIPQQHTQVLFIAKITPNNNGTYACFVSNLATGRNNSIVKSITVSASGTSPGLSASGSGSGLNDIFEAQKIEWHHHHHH
Description: (§1) To evaluate impact of these modifications, IgGs binding was determined by measuring SPR signals with a Biacore T200 unit (GE Healthcare). Anti-human Fc antibodies were coupled to a Series S CM5 chip via amine coupling kit to reach a level of 10,000 response units (RU). Approximately 300 to 600 RU of each variant were captured by injecting supernatants at 1 μg/mL with a contact time of 60 seconds and a flow rate of 10 μL/min. All experiments were performed at 25° C. with HBS-EP+(10 mM Hepes, 150 mM NaCl, 3 mM EDTA, 0.05% surfactant P20) as the running buffer. In a screening mode, the human CEACAM5 cynomolgus CEACAM5/human A3B3 domain was injected at 50 nM over the captured IgG variants at a flow rate of 30 μLimin for 1 minute. […]
(§2) For each experiment, response data were processed using a reference surface, thereby allowing correction for bulk refractive index changes and any non-specific binding. […] First, the binding activity is estimated by the proportion of the theoretical maximum signal measured (percentage of Rmax, see FIG. 16). Second, the percentage of remaining signal is calculated using dissociation report points (the first one 10 seconds after the end of the injection and the second one 50 seconds after the end of injection) and reflects the stability of binding (see FIG. 17).

[2] = molecular target: T2, cCEACAM5, M. fascicularis CEACAM5 ECD (35-688) (Macaca fascicularis); experiment: SPR screening (Biacore T200) of example 6.4
T2 construct: ECD followed by a 24 amino acid extension containing a His-Tag; also called cynomolgus CEACAM5; monkey CEACAM5
T2 chain: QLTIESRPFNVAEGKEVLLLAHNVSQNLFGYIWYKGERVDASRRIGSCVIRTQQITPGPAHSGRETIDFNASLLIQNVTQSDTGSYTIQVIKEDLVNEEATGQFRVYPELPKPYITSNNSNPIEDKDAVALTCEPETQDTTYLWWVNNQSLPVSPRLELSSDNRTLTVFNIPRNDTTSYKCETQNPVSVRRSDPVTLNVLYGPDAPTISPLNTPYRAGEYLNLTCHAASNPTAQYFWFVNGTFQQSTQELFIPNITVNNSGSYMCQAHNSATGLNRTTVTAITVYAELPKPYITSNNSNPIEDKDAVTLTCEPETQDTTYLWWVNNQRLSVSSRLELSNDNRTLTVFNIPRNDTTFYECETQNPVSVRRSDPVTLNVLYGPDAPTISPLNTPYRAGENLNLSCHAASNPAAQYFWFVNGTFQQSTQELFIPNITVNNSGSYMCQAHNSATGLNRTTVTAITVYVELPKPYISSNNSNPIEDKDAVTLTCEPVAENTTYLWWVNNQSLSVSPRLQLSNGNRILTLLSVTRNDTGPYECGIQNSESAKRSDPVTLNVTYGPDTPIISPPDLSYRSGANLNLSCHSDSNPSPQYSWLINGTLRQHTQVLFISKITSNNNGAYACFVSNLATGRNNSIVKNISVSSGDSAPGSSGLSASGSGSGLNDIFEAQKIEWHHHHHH
Description: as §1, §2

[3] = molecular target: T1, hCEACAM5, human CEACAM5 ECD (35-685); experiment: SPR (Biacore T200), IgG captured by anti-human Fc, antigen injected at 50 nM; % remaining signal after 50 seconds
Description: (§3) To evaluate impact of these modifications, IgGs binding was determined by measuring SPR signals with a Biacore T200 unit (GE Healthcare). Anti-human Fc antibodies were coupled to a Series S CM5 chip via amine coupling kit to reach a level of 10,000 response units (RU). Approximately 300 to 600 RU of each variant were captured by injecting supernatants at 1 μg/mL with a contact time of 60 seconds and a flow rate of 10 μL/min. All experiments were performed at 25° C. with HBS-EP+(10 mM Hepes, 150 mM NaCl, 3 mM EDTA, 0.05% surfactant P20) as the running buffer. In a screening mode, the human CEACAM5 cynomolgus CEACAM5/human A3B3 domain was injected at 50 nM over the captured IgG variants at a flow rate of 30 μLimin for 1 minute. A dissociation phase of 60 seconds was held before the surface was regenerated with 1 pulse injection of 3 M MgCl₂ at a flow rate of 10 μLiminute and a contact time of 30 seconds.
(§4) For each experiment, response data were processed using a reference surface, thereby allowing correction for bulk refractive index changes and any non-specific binding. Data were double referenced using response from blank injections. According to the screening method described in an application note from GE Healthcare (Application note 28-9777-72 AA), two parameters were considered to rank the variants with respect to binding characteristics. First, the binding activity is estimated by the proportion of the theoretical maximum signal measured (percentage of Rmax, see FIG. 16). Second, the percentage of remaining signal is calculated using dissociation report points (the first one 10 seconds after the end of the injection and the second one 50 seconds after the end of injection) and reflects the stability of binding (see FIG. 17).

[4] = molecular target: T2, cCEACAM5, M. fascicularis CEACAM5 ECD …; experiment: as above
Description: as §3, §4

[5] = molecular target: T1, hCEACAM5, human CEACAM5 ECD (35-685); experiment: SPR (Biacore T200), IgG captured by anti-human Fc, antigen injected at 50 nM; % Rmax reached
Description: as §3, §4

[6] = molecular target: T2, cCEACAM5, M. fascicularis CEACAM5 ECD …; experiment: as above
Description: as §3, §4

Binder | binding result [3] | binding result [4] | binding result [5] | binding result [6] | other results
B1 |  |  |  |  | binding result [1]: binds; binding result [2]: binds
B2 | binds | binds |  |  | 
B3 | binds | binds |  |  | 
B4 |  |  | binds | binds | 
B5 | binds | binds |  |  | 
B6 |  |  | binds | binds | 
B7 |  |  | binds | binds | 
B8 |  |  | binds |  | 
